Reference: patent US20250136717A1 (BYONDIS B V, published 2025)

Columns and labels:
[1] = target: T1, Protein A (Protein A sensor tips, Forte Bio, 18-5012) (UniProt P38507 37-327); test: BLI, Protein A tips
T1 construct: used to correct for the concentration of the antibody samples
Description: (§1) To correct for differences in concentration between the analyte stocks, Protein A binding was estimated for the same samples.

[2] = target: T2, Human Coagulation Factor III/Tissue Factor Protein, His Tag, Cat. No. TF3-H52H5 (human, UniProt P13726 33-251); test: BLI, TF on Ni-NTA tips
T2 construct: immobilized on Ni-NTA biosensor tips
Description: as §1

[3] = target: T2, Human Coagulation Factor III/Tissue …; test: BLI, TF signal over Protein A signal
Description: as §1

T2 sequence (P13726 33-251 limits assumed): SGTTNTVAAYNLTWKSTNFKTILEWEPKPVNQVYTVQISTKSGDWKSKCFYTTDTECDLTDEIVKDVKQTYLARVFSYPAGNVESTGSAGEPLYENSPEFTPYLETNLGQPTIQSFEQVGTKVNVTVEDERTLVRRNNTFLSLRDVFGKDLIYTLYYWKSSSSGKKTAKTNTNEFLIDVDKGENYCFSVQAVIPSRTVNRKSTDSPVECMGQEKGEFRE

| Binder | Protein A binding after 10 s of association [1] [nm] | TF binding after 10 s of association [2] [nm] | TF/Protein A * 1000 [3] |
| --- | --- | --- | --- |
| S313 (antibody, also called masked tisotumab Qg-BC2T-L9-HC / BC2-Nb-L9-LC) heavy: not shown light: QVQLVESGGGLVQPGGSLTLSCTASGFTLDHYDIGWFRQAPGKEREGVSCINNSDDDTYYADSVKGRFTIFMNNAKDTVYLQMNSLKPEDTAIYYCAEARGCKRGRYEYDFWGQGTQVTVSSGGGGSPLGLAGGGSDIQMTQSPPSLSASAGDRVTITCRASQGISSRLAWYQQKPEKAPKSLIYAASSLQSGVPSRFSGSGSGTDFTLTISSLQPEDFATYYCQQYNSYPYTFGQGTKLEIKRTVAAPSVFIFPPSDEQLKSGTASVVCLLNNFYPREAKVQWKVDNALQSGNSQESVTEQDSKDSTYSLSSTLTLSKADYEKHKVYACEVTHQGLSSPVTKSFNRGEC | 1.73 | – | – |
| S314 (antibody, also called masked P41C tisotumab Qg-BC2T-L9-HC (P41C) / BC2-Nb-L9-LC) heavy: not shown light: QVQLVESGGGLVQPGGSLTLSCTASGFTLDHYDIGWFRQAPGKEREGVSCINNSDDDTYYADSVKGRFTIFMNNAKDTVYLQMNSLKPEDTAIYYCAEARGCKRGRYEYDFWGQGTQVTVSSGGGGSPLGLAGGGSDIQMTQSPPSLSASAGDRVTITCRASQGISSRLAWYQQKPEKAPKSLIYAASSLQSGVPSRFSGSGSGTDFTLTISSLQPEDFATYYCQQYNSYPYTFGQGTKLEIKRTVAAPSVFIFPPSDEQLKSGTASVVCLLNNFYPREAKVQWKVDNALQSGNSQESVTEQDSKDSTYSLSSTLTLSKADYEKHKVYACEVTHQGLSSPVTKSFNRGEC | 1.37 | – | – |
| S312 (antibody, also called Anti-TF tisotumab (TF-011) (naked); parent antibody tisotumab) heavy: not shown light: DIQMTQSPPSLSASAGDRVTITCRASQGISSRLAWYQQKPEKAPKSLIYAASSLQSGVPSRFSGSGSGTDFTLTISSLQPEDFATYYCQQYNSYPYTFGQGTKLEIKRTVAAPSVFIFPPSDEQLKSGTASVVCLLNNFYPREAKVQWKVDNALQSGNSQESVTEQDSKDSTYSLSSTLTLSKADYEKHKVYACEVTHQGLSSPVTKSFNRGEC | 1.75 | 1.12 | 641 |
